Assay [1] concerns the target vWF A1-domain (UniProt P04275). Description: SPR (Biacore 3000), vWF A1-domain on CM5 chip, parallel line analysis. On the technique in general: Surface plasmon resonance follows binding to a sensor surface in real time, without labels.
The target of assay [2] is vWF A1-domain (UniProt P04275). Description: SPR (Biacore 3000), vWF A1-domain on CM5 chip, parallel line analysis; first of two independent analyses.
The target in assay [3] is vWF A1-domain (UniProt P04275). Nature of the assay: SPR (Biacore 3000), vWF A1-domain on CM5 chip, parallel line analysis; second of two independent analyses.

Several values for one entry are separate records, joined by “and”; a condition that tells them apart may be missing. Equal entries are not always repeated.

B1: Nanobody ALX0081sv1 (vWF0002) (VHH)
chain: DVQLVESGGGLVQPGGSLRLSCAASGRTFSYNPMGWFRQAPGKGRELVAAISRTGGSTYYPESVEGRFTISRDNAKRTVYLQMNSLRAEDTAVYYCAAAGVRAEQGRVRTLPSEYTFWGQGTQVTVSSAAAEVQLVESGGGLVQPGGSLRLSCAASGRTFSYNPMGWFRQAPGKGRELVAAISRTGGSTYYPESVEGRFTISRDNAKRTVYLQMNSLRAEDTAVYYCAAAGVRAEQGRVRTLPSEYTFWGQGTQVTVSS
With B1, the relative potency versus reference (non lyophilised, stored at -70 C) with vWF A1-domain [1] was 94.8% and 117% and 93.3%; with vWF A1-domain [2] it was 94.6%; with vWF A1-domain [3], 96.1%.

Source of the values: patent publication US20130012916A1.
